From patent US12138285B2, “Cholesterol reducing compositions and methods of use thereof” (The Broad Institute, Inc., priority 2019, dated 2024) come the findings set out here.

“Also recorded” adds a separate entry of the source.

What all share (assay type): biochemical
The test system of assay [1] is cholesterol. Put plainly: In vitro activity assay of purified N-terminal His-tagged ECOP170 (cofactor dependence). The settings on record: purified enzyme 1.5 μM, HEPES pH 7.5, 100 μM cholesterol, 100 μM NADP+ or NAD+. Here is the method:
FIG. 11 In vitro activity assay of purified N-terminal His-tagged ECOP170 expressed in BL21 E. coli. Activity assay with ECOP170 (1.5 μM) in HEPES (pH=7.5, 50 mM, 300 mM NaCl) with 100 μM cholesterol and either 100 μM of NADP^+ (red) or 100 μM of NAD^+ (blue). EICs of 2 (rt 2.60, 385.244→108.988) are shown for both conditions.
Proteins were overexpressed using the procedure described above. Cells from 200 mL of culture were pelleted by centrifugation, resuspended in 10 mL of ice-cold lysis buffer (300 mM NaCl, 10 mM imidazole, 50 mM HEPES, pH 7.5) containing one cOmplete Protease Inhibitor cocktail tablet, and lysed by 4 min of continuous passage through a cell disruptor (EmulsiFlex-C3, Avestin) at 15,000 lbs per square inch. Cell debris was removed by ultracentrifugation (20 min at 20,000×g and 4° C.), and the cell-free extract was applied to 0.5 mL of HisPur Ni-NTA Resin (Thermo Scientific) pre-equilibrated with lysis buffer by gentle rocking at 4° C. for 2 h. Non-absorbed materials and weakly bound proteins were removed by washing the column with 2×25 mL of wash buffer (300 mM NaCl, 20 mM imidazole, 50 mM HEPES, pH 7.5). His6-tagged protein was eluted with 5 mL of elution buffer (300 mM NaCl, 200 mM imidazole, 50 mM HEPES, pH 7.5). […]

In assay [2] the test system is primary bile acids cholic acid and chenodeoxycholic acid. Put plainly: Lysate experiments for cholesterol oxidoreductase activity, substrate primary bile acids. Particulars: E. coli lysate expressing the enzyme. Here is the method: FIG. 12A-12B CORs from human-associated gut microbes accept cholesterol and coprostanol but not primary bile acids. Activity assay with E. coli lysates (PBS, pH=7.4) expressing one of the cholesterol oxidoreductase enzymes from human-associated microbes with FIG. 12A. […] EIC for the products of both reactions are shown.
500 mL of a culture of E. coli BL21 expressing one of the cholesterol oxidoreductase homologs were pelleted by centrifugation (20 min at 7,000 g and 4° C.), resuspended in 10 mL of ice-cold phosphate-buffered saline containing one cOmplete Protease Inhibitor cocktail tablet (Roche Diagnostics) and lysed by a cell disruptor (EmulsiFlex-C3, Avestin). Cell debris was removed by ultracentrifugation (30 min at 20,000 g and 4° C.). Protein expression was confirmed by SDS-PAGE analysis using 4-20% Mini-PROTEAN TGX gels (Bio-Rad Laboratories). Gels were stained with Coomassie Blue for visualization. The clarified supernatant was used directly in the cell lysate assay described below. Cholesterol or coprostanol (5 μL of a 10 mM solution of cholesterol or coprostanol in methanol) was added to 500 μL of clarified supernatant with 100 μM of NADP^+ and NAD^+. After incubation at 37° C. for 12 h, the reaction mixtures were frozen until being analyzed using LC-MS.

In assay [3] the test system is cholesterol. Put plainly: Lysate experiments for cholesterol oxidoreductase activity (E. coli BL21 lysates expressing COR/HSD enzymes), substrate cholesterol. Particulars: E. coli lysate expressing the enzyme, 100 μM cholesterol, 100 μM NADP+ and NAD+, 37° C. 12 h, LC-MS. The procedure: (§1) Candidate cholesterol oxidoreductase genes were amplified from genomic DNA (for E. coprostanoligenes) and cloned into pET28b. DNA was extracted from stool samples (DNeasy PowerSoil Kit, Qiagen) (for CAG:217, CAG:251 and CAG:341) or purchased from Genewiz (Ordered sequences are listed in Table 6). PCR reactions were performed with Phusion High Fidelity polymerase, and PCR products were purified (Zymoclean gel DNA recovery kit, Zymo research). The resulting gene products were assembled into pET28b using Gibson assembly and transformed into Stellar™ Competent Cells. The identities of the constructs were confirmed with DNA sequencing and transformed into E. coli BL21 strains for expression. All constructs were grown in LB with kanamycin (50 μg/mL) with the exception of the strain expressing the homolog from CAG:180 which required growth in TB for protein expression. […]
(§2) 500 mL of a culture of E. coli BL21 expressing one of the cholesterol oxidoreductase homologs were pelleted by centrifugation (20 min at 7,000 g and 4° C.), resuspended in 10 mL of ice-cold phosphate-buffered saline containing one cOmplete Protease Inhibitor cocktail tablet (Roche Diagnostics) and lysed by a cell disruptor (EmulsiFlex-C3, Avestin). […] After incubation at 37° C. for 12 h, the reaction mixtures were frozen until being analyzed using LC-MS. […]

The next assay relates to coprostanol. Kind of assay: Lysate experiments for cholesterol oxidoreductase activity, substrate coprostanol. The settings on record: E. coli lysate expressing the enzyme, 100 μM coprostanol, 100 μM NADP+ and NAD+, 37° C. 12 h, LC-MS. The procedure:
as §1, §2

B1: ECOP170: 3β-hydroxysteroid dehydrogenase / cholesterol oxidoreductase (COR, IsmA) enzyme from E. coprostanoligenes (protein)
chain: MSTCWLQGKTVVVTGASGGMGAGIAATLIKKHGCTVIGVARNEKKMLKFVDELGETYAKQFSYELFDVSSKENWEKFAEELQEKGVKVDVLINNAGILPKFKRFDRYSYEEIERAMNINFYSCVYSVKTMLPMLLQSSTPAIINIDSSAALMTLAGTSMYSASKAALKGFTEALRVEFQGKMFVGLVCPGFTKTDIFSGQGDADMSNGAKVMDMISTDCDKMVKMIMFGIEHKTPMQVHGFDAHAMSVFNRLMPVYGSKLFSSIMRMSNVDIFKEVFSD
With B1, the “cofactor dependence of cholesterol oxidation” value with cholesterol [1] was “showed a strict dependence on NADP^+ and not NAD^+”. Moreover, in assay [2], the “oxidation of primary bile acids cholic acid and chenodeoxycholic acid to keto bile acids” value is “unable to oxidize the primary bile acids cholic acid and chenodeoxycholic acid; also recorded: did not oxidize the primary bile acids cholic acid and chenodeoxycholic acid”. Besides, in the assay on cholesterol [3], the “oxidation of cholesterol (1) to cholestenone (2)” value is recorded as “converts cholesterol (1) to cholestenone (2); also recorded: oxidized cholesterol to 2; also recorded: oxidized cholesterol to cholestenone”. Also, the “oxidation of coprostanol (4) to coprostanone (3)” value with coprostanol was “converts coprostanol (4) to coprostanone (3); also recorded: catalyzed the oxidation of coprostanol (4) to coprostanone (3); also recorded: showed activity towards coprostanol”.
